The supplement of paper PMC12458215
± gives the uncertainty stated by the source.

System: HEK293T
Assay: plasma membrane surface immunostaining intensity (anti-HA, deep receptor scanning) (arbitrary fluorescence units); higher = higher plasma membrane expression

| Sequence | plasma membrane surface immunostaining intensity (GPCR class: A) | plasma membrane surface immunostaining intensity (GPCR class: A (Olfactory)) | other results |
| --- | --- | --- | --- |
| MINSTSTQPPDESCSQNLLITQQIIPVLYCMVFIAGILLNGVSGWIFFYVPSSKSFIIYLKNIVIADFVMSLTFPFKILGDSGLGPWQLNVFVCRVSAVLFYVNMYVSIVFFGLISFDRYYKIVKPLWTSFIQSVSYSKLLSVIVWMLMLLLAVPNIILTNQSVREVTQIKCIELKSELGRKWHKASNYIFVAIFWIVFLLLIVFYTAITKKIFKSHLKSSRNSTSVKKKSSRNIFSIVFVFFVCFVPYHIARIPYTKSQTEAHYSCQSKEILRYMKEFTLLLSAANVCLDPIIYFFLCQPFREILCKKLHIPLKAQNDLDISRIKRGNTTLESTDTL [P2RY14] | 5190 ± 71 |  |  |
| MITLNNQDQPVPFNSSHPDEYKIAALVFYSCIFIIGLFVNITALWVFSCTTKKRTTVTIYMMNVALVDLIFIMTLPFRMFYYAKDEWPFGEYFCQILGALTVFYPSIALWLLAFISADRYMAIVQPKYAKELKNTCKAVLACVGVWIMTLTTTTPLLLLYKDPDKDSTPATCLKISDIIYLKAVNVLNLTRLTFFFLIPLFIMIGCYLVIIHNLLHGRTSKLKPKVKEKSIRIIITLLVQVLVCFMPFHICFAFLMLGTGENSYNPWGAFTTFLMNLSTCLDVILYYIVSKQFQARVISVMLYRNYLRSMRRKSFRSGSLRSLSNINSEML [GPR18] | 360 ± 120 |  |  |
| MKAGNFSDTPEFFLLGLSGDPELQPILFMLFLSMYLATMLGNLLIILAVNSDSHLHTPMYFLLSILSLVDICFTSTTMPKMLVNIQAQAQSINYTGCLTQICFVLVFVGLENGILVMMAYDRFVAICHPLRYNVIMNPKLCGLLLLLSFIVSVLDALLHTLMVLQLTFCIDLEIPHFFCELAHILKLACSDVLINNILVYLVTSLLGVVPLSGIIFSYTRIVSSVMKIPSAGGKYKAFSICGSHLIVVSLFYGTGFGVYLSSGATHSSRKGAIASVMYTVVTPMLNPLIYSLRNKDMLKALRKLISRIPSFH [OR7G3] |  | 111 ± 21 |  |
| MKALIFAAAGLLLLLPTFCQSGMENDTNNLAKPTLPIKTFRGAPPNSFEEFPFSALEGWTGATITVKIKCPEESASHLHVKNATMGYLTSSLSTKLIPAIYLLVFVVGVPANAVTLWMLFFRTRSICTTVFYTNLAIADFLFCVTLPFKIAYHLNGNNWVFGEVLCRATTVIFYGNMYCSILLLACISINRYLAIVHPFTYRGLPKHTYALVTCGLVWATVFLYMLPFFILKQEYYLVQPDITTCHDVHNTCESSSPFQLYYFISLAFFGFLIPFVLIIYCYAAIIRTLNAYDHRWLWYVKASLLILVIFTICFAPSNIILIIHHANYYYNNTDGLYFIYLIALCLGSLNSCLDPFLYFLMSKTRNHSTAYLTK [F2RL2] | 221 ± 21 |  |  |
| MKANYSAEERFLLLGFSDWPSLQPVLFALVLLCYLLTLTGNSALVLLAVRDPRLHTPMYYFLCHLALVDAGFTTSVVPPLLANLRGPALWLPRSHCTAQLCASLALGSAECVLLAVMALDRAAAVCRPLRYAGLVSPRLCRTLASASWLSGLTNSVAQTALLAERPLCAPRLLDHFICELPALLKLACGGDGDTTENQMFAARVVILLLPFAVILASYGAVARAVCCMRFSGGRRRAVGTCGSHLTAVCLFYGSAIYTYLQPAQRYNQARGKFVSLFYTVVTPALNPLIYTLRNKKVKGAARRLLRSLGRGQAGQ [OR2I1P] |  | 132 ± 5.4 |  |
| MKETRGYGGDAPFCTRLNHSYTGMWAPERSAEARGNLTRPPGSGEDCGSVSVAFPITMLLTGFVGNALAMLLVSRSYRRRESKRKKSFLLCIGWLALTDLVGQLLTTPVVIVVYLSKQRWEHIDPSGRLCTFFGLTMTVFGLSSLFIASAMAVERALAIRAPHWYASHMKTRATRAVLLGVWLAVLAFALLPVLGVGQYTVQWPGTWCFISTGRGGNGTSSSHNWGNLFFASAFAFLGLLALTVTFSCNLATIKALVSRCRAKATASQSSAQWGRITTETAIQLMGIMCVLSVCWSPLLIMMLKMIFNQTSVEHCKTHTEKQKECNFFLIAVRLASLNQILDPWVYLLLRKILLRKFCQIRYHTNNYASSSTSLPCQCSSTLMWSDHLER [PTGER3] | 684 ± 110 |  |  |
| MKIANNTVVTEFILLGLTQSQDIQLLVFVLILIFYLIILPGNFLIIFTIRSDPGLTAPLYLFLGNLAFLDASYSFIVAPRMLVDFLSEKKVISYRGCITQLFFLHFLGGGEGLLLVVMAFDRYIAICRPLHCSTVMNPRACYAMMLALWLGGFVHSIIQVVLILRLPFCGPNQLDNFFCDVRQVIKLACTDMFVVELLMVFNSGLMTLLCFLGLLASYAVILCHVRRAASEGKNKAMSTCTTRVIIILLMFGPAIFIYICPFRALPADKMVSLFHTVIFPLMNPMIYTLRNQEVKTSMKRLLSRHVVCQVDFIIRN [OR4N4C] |  | 323 ± 130 |  |
| MKIANNTVVTEFILLGLTQSQDIQLLVFVLILIFYLIILPGNFLIIFTIRSDPGLTAPLYLFLGNLAFLDASYSFIVAPRMLVDFLSEKKVISYRGCITQLFFLHFLGGGEGLLLVVMAFDRYIAICRPLHCSTVMNPRACYAMMLALWLGGFVHSIIQVVLILRLPFCGPNQLDNFFCDVRQVIKLACTDMFVVELLMVFNSGLMTLLCFLGLLASYAVILCHVRRAASEGKNKAMSTCTTRVIIILLMFGPAIFIYMCPFRALPADKMVSLFHTVIFPLMNPMIYTLRNQEVKTSMKRLLSRHVVCQVDFIIRN [OR4N4] |  | 255 ± 110 |  |
| MKKENQSFNLDFILLGVTSQQEQNNVFFVIFLCIYPITLTGNLLIILAICADIRLHNPMYFLLANLSLVDIIFSSVTIPKVLANHLLGSKFISFGGCLMQMYFMIALAKADSYTLAAMAYDRAVAISCPLHYTTIMSPRSCILLIAGSWVIGNTSALPHTLLTASLSFCGNQEVANFYCDIMPLLKLSCSDVHFNVKMMYLGVGVFSLPLLCIIVSYVQVFSTVFQVPSTKSLFKAFCTCGSHLTVVFLYYGTTMGMYFRPLTSYSPKDAVITVMYVAVTPALNPFIYSLRNWDMKAALQKLFSKRISS [OR1A2] |  | 207 ± 46 |  |
| MKLGSSRAGPGRGSAGLLPGVHELPMGIPAPWGTSPLSFHRKCSLWAPGRPFLTLVLLVSIKQVTGSLLEETTRKWAQYKQACLRDLLKEPSGIFCNGTFDQYVCWPHSSPGNVSVPCPSYLPWWSEESSGRAYRHCLAQGTWQTIENATDIWQDDSECSENHSFKQNVDRYALLSTLQLMYTVGYSFSLISLFLALTLLLFLRKLHCTRNYIHMNLFASFILRTLAVLVKDVVFYNSYSKRPDNENGWMSYLSEMSTSCRSVQVLLHYFVGANYLWLLVEGLYLHTLLEPTVLPERRLWPRYLLLGWAFPVLFVVPWGFARAHLENTGCWTTNGNKKIWWIIRGPMMLCVTVNFFIFLKILKLLISKLKAHQMCFRDYKYRLAKSTLVLIPLLGVHEILFSFITDDQVEGFAKLIRLFIQLTLSSFHGFLVALQYGFANGEVKAELRKYWVRFLLARHSGCRACVLGKDFRFLGKCPKKLSEGDGAEKLRKLQPSLNSGRLLHLAMRGLGELGAQPQQDHARWPRGSSLSECSEGDVTMANTMEEILEESEI [GLP2R] |  |  | plasma membrane surface immunostaining intensity (GPCR class: B): 121 ± 21 |
| MKLWMESHLIVPETRPSPRMMSNQTLVTEFILQGFSEHPEYRVFLFSCFLFLYSGALTGNVLITLAITFNPGLHAPMYFFLLNLATMDIICTSSIMPKALASLVSEESSISYGGCMAQLYFLTWAASSELLLLTVMAYDRYAAICHPLHYSSMMSKVFCSGLATAVWLLCAVNTAIHTGLMLRLDFCGPNVIIHFFCEVPPLLLLSCSSTYVNGVMIVLADAFYGIVNFLMTIASYGFIVSSILKVKTAWGRQKAFSTCSSHLTVVCMYYTAVFYAYISPVSGYSAGKSKLAGLLYTVLSPTLNPLIYTLRNKEVKAALRKLFPFFRN [OR13A1] |  | 120 ± 26 |  |
| MKMKSQATMICCLVFFLSTECSHYRSKIHLKAGDKLQSPEGKPKTGRIQEKCEGPCISSSNCSQPCAKDFHGEIGFTCNQKKWQKSAETCTSLSVEKLFKDSTGASRLSVAAPSIPLHILDFRAPETIESVAQGIRKNCPFDYACITDMVKSSETTSGNIAFIVELLKNISTDLSDNVTREKMKSYSEVANHILDTAAISNWAFIPNKNASSDLLQSVNLFARQLHIHNNSENIVNELFIQTKGFHINHNTSEKSLNFSMSMNNTTEDILGMVQIPRQELRKLWPNASQAISIAFPTLGAILREAHLQNVSLPRQVNGLVLSVVLPERLQEIILTFEKINKTRNARAQCVGWHSKKRRWDEKACQMMLDIRNEVKCRCNYTSVVMSFSILMSSKSMTDKVLDYITCIGLSVSILSLVLCLIIEATVWSRVVVTEISYMRHVCIVNIAVSLLTANVWFIIGSHFNIKAQDYNMCVAVTFFSHFFYLSLFFWMLFKALLIIYGILVIFRRMMKSRMMVIGFAIGYGCPLIIAVTTVAITEPEKGYMRPEACWLNWDNTKALLAFAIPAFVIVAVNLIVVLVVAVNTQRPSIGSSKSQDVVIIMRISKNVAILTPLLGLTWGFGIATLIEGTSLTFHIIFALLNAFQGFFILLFGTIMDHKIRDALRMRMSSLKGKSRAAENASLGPTNGSKLMNRQG [ADGRF4] |  |  | plasma membrane surface immunostaining intensity (GPCR class: B): 386 ± 78 |
| MKMLTRLQVLTLALFSKGFLLSLGDHNFLRREIKIEGDLVLGGLFPINEKGTGTEECGRINEDRGIQRLEAMLFAIDEINKDDYLLPGVKLGVHILDTCSRDTYALEQSLEFVRASLTKVDEAEYMCPDGSYAIQENIPLLIAGVIGGSYSSVSIQVANLLRLFQIPQISYASTSAKLSDKSRYDYFARTVPPDFYQAKAMAEILRFFNWTYVSTVASEGDYGETGIEAFEQEARLRNICIATAEKVGRSNIRKSYDSVIRELLQKPNARVVVLFMRSDDSRELIAAASRANASFTWVASDGWGAQESIIKGSEHVAYGAITLELASQPVRQFDRYFQSLNPYNNHRNPWFRDFWEQKFQCSLQNKRNHRRVCDKHLAIDSSNYEQESKIMFVVNAVYAMAHALHKMQRTLCPNTTKLCDAMKILDGKKLYKDYLLKINFTAPFNPNKDADSIVKFDTFGDGMGRYNVFNFQNVGGKYSYLKVGHWAETLSLDVNSIHWSRNSVPTSQCSDPCAPNEMKNMQPGDVCCWICIPCEPYEYLADEFTCMDCGSGQWPTADLTGCYDLPEDYIRWEDAWAIGPVTIACLGFMCTCMVVTVFIKHNNTPLVKASGRELCYILLFGVGLSYCMTFFFIAKPSPVICALRRLGLGSSFAICYSALLTKTNCIARIFDGVKNGAQRPKFISPSSQVFICLGLILVQIVMVSVWLILEAPGTRRYTLAEKRETVILKCNVKDSSMLISLTYDVILVILCTVYAFKTRKCPENFNEAKFIGFTMYTTCIIWLAFLPIFYVTSSDYRVQTTTMCISVSLSGFVVLGCLFAPKVHIILFQPQKNVVTHRLHLNRFSVSGTGTTYSQSSASTYVPTVCNGREVLDSTTSSL [GRM3] |  |  | plasma membrane surface immunostaining intensity (GPCR class: C): 6390 ± 16 |
| MKSDNHSFLGDSPKAFILLGVSDRPWLELPLFVVLLLSYVLAMLGNVAIILASRVDPQLHSPMYIFLSHLSFLDLCYTTTTVPQMLVNMGSSQKTISYGGCTVQYAVFHWLGCTECIVLAAMALDRYVAICKPLHYAVLMHRALCQQLVALAWLSGFGNSFVQVVLTVQLPFCGRQVLNNFFCEVPAVIKLSCADTAVNDTILAVLVAFFVLVPLALILLSYGFIARAVLRIQSSKGRHKAFGTCSSHLMIVSLFYLPAIYMYLQPPSSYSQEQGKFISLFYSIITPTLNPFTYTLRNKDMKGALRRLLARIWRLCG [OR2B11] |  | 238 ± 84 |  |
| MKSILDGLADTTFRTITTDLLYVGSNDIQYEDIKGDMASKLGYFPQKFPLTSFRGSPFQEKMTAGDNPQLVPADQVNITEFYNKSLSSFKENEENIQCGENFMDIECFMVLNPSQQLAIAVLSLTLGTFTVLENLLVLCVILHSRSLRCRPSYHFIGSLAVADLLGSVIFVYSFIDFHVFHRKDSRNVFLFKLGGVTASFTASVGSLFLTAIDRYISIHRPLAYKRIVTRPKAVVAFCLMWTIAIVIAVLPLLGWNCEKLQSVCSDIFPHIDETYLMFWIGVTSVLLLFIVYAYMYILWKAHSHAVRMIQRGTQKSIIIHTSEDGKVQVTRPDQARMDIRLAKTLVLILVVLIICWGPLLAIMVYDVFGKMNKLIKTVFAFCSMLCLLNSTVNPIIYALRSKDLRHAFRSMFPSCEGTAQPLDNSMGDSDCLHKHANNAASVHRAAESCIKSTVKIAKVTMSVSTDTSAEAL [CNR1] | 130 ± 25 |  |  |
